Results taken from article PMC12077092, “A novel micronemal protein MP38 is involved in the invasion of merozoites into erythrocytes” (mBio, 2025).
“And” between values parts separate entries of the source, which are not always exact repeats. Equal entries are not always repeated.

Legend:
[1] = target: Pv41-Fc (PVX_000995, ectodomain E22-E384, human IgG1 Fc fusion) (Plasmodium vivax) (UniProt A5KAP6); assay: BLI; Gator system, anti-human IgG Fc (HFC) probes; Fc-tagged protein immobilised (10 µM, 120 s); His-tagged protein in serial dilution (1.5 to 100 µM by the methods; 1.5625-100 nM in the key of Fig. S3C), association 300 s, dissociation 600 s in PBS; 1:1 global fit; two experiments with different batches of protein
[2] = target: Pv41 full-length ectodomain, human IgG1-Fc-tagged (Plasmodium vivax); assay: BLI; Gator system, anti-human IgG Fc (HFC) probes; Fc-tagged protein immobilised (10 uM, 120 s); His-tagged protein 1.5 to 100 uM, 300 s association, 600 s dissociation in PBS; 1:1 global fit
[3] = target: Pv12 full-length ectodomain, His-tagged (Plasmodium vivax); assay: native gel or EMSA; blue native PAGE, 4%-16%, purified His-tagged recombinant protein, Coomassie stain
[4] = target: Pv12 full-length ectodomain, human IgG1-Fc-tagged (Plasmodium vivax); assay: BLI; Gator system, anti-human IgG Fc (HFC) probes; Fc-tagged protein immobilised (10 uM, 120 s); His-tagged protein 1.5 to 100 uM, 300 s association, 600 s dissociation in PBS; 1:1 global fit
[5] = target: Pv41 full-length ectodomain, His-tagged (Plasmodium vivax); assay: native gel or EMSA; blue native PAGE, 4%-16%, purified His-tagged recombinant protein, Coomassie stain
[6] = target: Pv12-Fc (PVX_113775, ectodomain F24-A339, human IgG1 Fc fusion) (Plasmodium vivax) (UniProt A5K1W7); assay: BLI; Gator system, anti-human IgG Fc (HFC) probes; Fc-tagged protein immobilised (10 µM, 120 s); His-tagged protein in serial dilution (1.5 to 100 µM by the methods; 1.5625-100 nM in the key of Fig. S3C), association 300 s, dissociation 600 s in PBS; 1:1 global fit; two experiments with different batches of protein
[7] = target: Pk12-Fc (PKNH_1137300, ectodomain F24-S344, human IgG1 Fc fusion) (Plasmodium knowlesi); assay: as above
[8] = target: T1, PvDBP-RII (194-521 aa.)-8His (Plasmodium vivax, UniProt P22290 194-521); assay: as above; settings: both partners purified
T1 construct: also called PvDBPII-His; PvDBP-RII-His; source: HEK293-EBNA1 cells, transiently transfected, purified from culture supernatant (Ni-NTA); not shown: 8xHis, C-terminal, kept

[9] = target: T2, P. vivax Duffy-binding protein region II, His-tagged (194-521 aa) (Plasmodium vivax, UniProt P22290 194-521); assay: BLI; Gator system, anti-human IgG Fc (HFC) probes; Fc-tagged protein immobilised (10 uM, 120 s); His-tagged protein 1.5 to 100 uM, 300 s association, 600 s dissociation in PBS; 1:1 global fit; settings: both partners purified
T2 construct: also called PvDBPII-His; PvDBP-RII-His; source: HEK293-EBNA1 (HEK293E), transiently transfected, purified from culture supernatant (Ni-NTA); not shown: 8xHis, C-terminal, kept

Pk12-8His (PKNH_1137300, ectodomain F24-S344) (domain or fragment)
Kd [1]: 184 nM and 160 nM | koff [1]: 0.0485 s⁻¹ and 0.0454 s⁻¹ | kon [1]: 263000 M⁻¹ s⁻¹ and 284000 M⁻¹ s⁻¹

Pv12 full-length ectodomain, His-tagged (domain or fragment)
Kd [2]: 0.53 nM | stoichiometry N [3]: 2

Pv12-8His (PVX_113775, ectodomain F24-A339) (from UniProt A5K1W7 24-339) (domain or fragment)
Kd [1]: 0.555 nM and 0.512 nM | koff [1]: 0.000174 s⁻¹ and 0.000156 s⁻¹ | kon [1]: 314000 M⁻¹ s⁻¹ and 305000 M⁻¹ s⁻¹

Pv41 full-length ectodomain, His-tagged (domain or fragment)
Kd [4]: 14.2 nM | stoichiometry N [5]: 2

Pv41-8His (PVX_000995, ectodomain E22-E384) (from UniProt A5KAP6 22-384) (domain or fragment)
Kd [6]: 12.2 nM and 16.1 nM | koff [6]: 0.000662 s⁻¹ and 0.000803 s⁻¹ | kon [6]: 54300 M⁻¹ s⁻¹ and 50000 M⁻¹ s⁻¹ | Kd [7]: 19 nM and 11.4 nM

PvMP38 (PVX_110945), full-length ectodomain, His-tagged (domain or fragment)
Kd [4]: 2.46 nM

PvMP38-8His (PVX_110945, full-length ectodomain D28-K343) (domain or fragment)
Kd [6]: 2.39 nM and 2.56 nM | Kd [7]: 0.833 nM and 0.96 nM

B1: hDARC-Fc (human DARC M1-P63, human IgG1 Fc fusion) (Fc fusion, UniProt Q16570-1 1-63, looked up)
chain: MGNCLHRAELSPSTENSSQLDFEDVWNSSYGVNDSFPDGDYGANLEAAAPCHSCNLLDDSALP
notes: Duffy antigen/receptor for chemokines (DARC), human, NP_002027, region expressed M1-P63; also called human DARC-Fc; source: HEK293-EBNA1 cells, transiently transfected, purified from culture supernatant (HiTrap Protein G HP)
Kd [8]: 3 nM and 2.39 nM

B2: human DARC-Fc (1-63 aa) (Fc fusion, UniProt Q16570 1-63, looked up)
chain: MGNCLHRAELSPSTENSSQLDFEDVWNSSYGVNDSFPDGDYGANLEAAAPCHSCNLLDDSALP
notes: Duffy antigen/receptor for chemokines (DARC), human, residues 1-63; also called hDARC; source: HEK293-EBNA1 (HEK293E), transiently transfected, purified from culture supernatant (Protein G)
Kd [9]: 2.7 ± 0.43 nM
